In patent US20240117030A1 (Pfizer, published 2024):
Substitutions are numbered along the chain they refer to.

T1: human IL-4 (human, UniProt P05112 25-153)
T1 sequence (looked up): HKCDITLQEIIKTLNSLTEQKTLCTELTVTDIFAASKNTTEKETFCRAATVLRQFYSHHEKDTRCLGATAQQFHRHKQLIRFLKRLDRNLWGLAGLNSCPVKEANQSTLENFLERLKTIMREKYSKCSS

T2: recombinant human IL-33 (R&D Systems 3625-IL), reduced with DTT (human, UniProt O95760 112-270, limits assumed)
T2 sequence (looked up): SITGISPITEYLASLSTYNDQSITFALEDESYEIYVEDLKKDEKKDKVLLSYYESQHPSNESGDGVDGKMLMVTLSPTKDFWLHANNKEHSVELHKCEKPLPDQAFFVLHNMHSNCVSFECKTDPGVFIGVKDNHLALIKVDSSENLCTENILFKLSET

T3: human IL-4 (human, UniProt P05112 25-153)
T3 sequence (looked up): T1 sequence (looked up)

B1: IL13433-0607 (trispecific antibody, human IgG1, kappa)
heavy: EVQLVESGGGLVQPGGSLRLSCAASGFTFSSYAMSWVRQAPGKGLEWVASISTGDTTYYPDSVKGRFTISRDNAKNSLYLQMNSLRAEDTAVYYCARNEGYYFGLTQWGRGTLVTVSSASTKGPSVFPKAPSSKSTSGGTAALGCLVKDYFPEPVTVSWNSGALTSGVHTFPAVLQSSGLYSLSSSVTVPSSSLGTQTYICNVNHKPSNTKVDKKVEPKSCDKTHTCPPCPAPEAAGAPSVFLFPPKPKDTLMISRTPEVTCVVVDVSHEDPEVKFNWYVDGVEVHNAKTKPREEQYNSTYRVVSVLTVLHQDWLNGKEYKCKVSNKALPAPIEKTISKAKGQPREPQVCTLPPSREEMTKNQVSLWCLVKGFYPSDIAVEWESNGQPENNYKTTPPVLDSDGSFFLYSKLTVDKSRWQQGNVFSCSVLHEALHSHYTQKSLSLSPGK
chain 1: DIQMTQSPSSLSASVGDRVTITCRASQPISKHLDWYQQKPGKAPKLLIYFTNNLQTGVPSRFSGSGSGTDFTLTISSLQPEDFATYYCFQYNQGWTFGGGTKVEIKRTVAAPSVFIFPPSDEQLKSGTASVVCLLNNFYPREAKVQWKVDNALQSGNSQESVTEQDSKDSTYSLSSTLTLSKADYEKHKVYACEVTHQGLSSPVTKSFNRGECGGGGSEVTLRESGPALVKPTQTLTLTCTFSGFSLSNFGEGLSWIRQPPGKGLEWLAHIYWDDDKRYSTSLKTRLTISKDTSRNQVVLTMTNMDPVDTATYYCARRETVFYWYFDVWGQGTTVTVSSASTKGPSVFPEAPSSKSTSGGTAALGCLVKDYFPEPVTVSWNSGALTSGVHTFPAVLQSSGLYSLGSVVTVPSSSLGTQTYICNVNHKPSNTKVDKKVEPKSCDKTHTCPPCPAPEAAGAPSVFLFPPKPKDTLMISRTPEVTCVVVDVSHEDPEVKFNWYVDGVEVHNAKTKPREEQYNSTYRVVSVLTVLHQDWLNGKEYKCKVSNKALPAPIEKTISKAKGQPREPQVYTLPPCREEMTKNQVSLSCAVKGFYPSDIAVEWESNGQPENNYKTTPPVLDSDGSFFLVSKLTVDKSRWQQGNVFSCSVLHEALHSHYTQKSLSLSPGK
light 1: DIQMTQSPSSLSASVGDRVTITCRASESVDHFGWSLVHWYQQKPGKAPKLLIYRADSLETGVPSRFSGSGSGTDFTLTISSLQPEDFATYYCQQSNEDPWTFGGGTKVEIKRTVAAPSVFIFPPSDEQLKSGTASVSCLLNNFYPREAKVQWKVDNALQSGNSQESVTEQDSKDSTYSLDSTLTLSKADYEKHKVYACEVTHQGLSSPVTKSFNRGEC
light 2: DIQMTQSPSSLSASVGDRVTITCRASQSVDEEGDSYMNWYQQKPGKAPKLLIYAASNLESGVPSRFSGSGSGTDFTLTISSLQPEDFATYYCQQSHKDPPTFGGGTKVEIKRTVAAPSVFIFPPSDEQLKSGTASVSCLLNNFYPREAKVQWKVDNALQSGNSQESVTEQDSKDSTYSLKSTLTLSKADYEKHKVYACEVTHQGLSSPVTKSFNRGEC
chain 2: EVQLVESGGGLVQPGGSLRLSCAASGFTFSSYWMYWVRQAPGKGLEWVAAITPNAGEDYYPESVKGRFTISRDNAKNSLYLQMNSLRAEDTAVYYCARGHYYYTSYSLGYWGQGTLVTVSSASTKGPSVFPLAPSSKSTSGGTAALGCLVKDYFPEPVTVSWNSGALTSGVHTFPAVLQSSGLYSLSSVVTVPSSSLGTQTYICNVNHKPSNTKVDKKVEPKSC
B2: IL4-1358 (antibody, IgG1, V domains shown)
VH: QVTLRESGPALVKPTQTLTLTCTFSGFSLSTWGEGVSWIRQPPGKGLEWLAHIYWDDDKRYNPSLKSRLTISKDTSRNQVVLTMTNMDPVDTATYYCARRETVFYWYFDVWGRGTPVTVSS
VL: DIQMTQSPSSLSASVGDRVTITCKASQSVDEDGDSYMNWYQQKPGKAPKLLIYAASNLESGVPSRFSGSGSGTDFTLTISSLQPEDFATYYCQQSNEDPPTFGGGTKVEIK
B3: IL4-0157 (antibody, IgG1, V domains shown)
VH: B2 VH with Q1E, T31N, W32F, V36L, N62S, P63T, S67T, R113Q, P116T
VL: B2 VL with K24R, D32E, N96H, E97K
B4: IL4-1040 (antibody, human IgG1, kappa, V domains shown)
VH: B2 VH with Q1E, T31N, W32F, V36L, R113Q, P116T
VL: DIQMTQSPSSLSASVGDRVTITCRASQSVDEEGDSYMNWYQQKPGKAPKLLIYAASNLESGVPSRFSGSGSGTDFTLTISSLQPEDFATYYCQQSNKDPPTFGGGTKVEIKR
B5: IL4-0037 (antibody, IgG1, V domains shown)
VH: B2 VH with Q1E, T31N, W32F, V36L, N62S, P63T, S67T, R113Q, P116T
VL: B2 VL
B6: IL4-0749 (antibody, human IgG1, kappa, V domains shown)
VH: B2 VH with Q1E, T31N, W32F, V36L, R113Q, P116T
VL: B4 VL with K97E
B7: IL4-0002 (antibody, human IgG1, kappa)
heavy: EVTLRESGPALVKPTQTLTLTCTFSGFSLSNFGEGLSWIRQPPGKGLEWLAHIYWDDDKRYNPSLKSRLTISKDTSRNQVVLTMTNMDPVDTATYYCARRETVFYWYFDVWGQGTTVTVSSASTKGPSVFPLAPSSKSTSGGTAALGCLVKDYFPEPVTVSWNSGALTSGVHTFPAVLQSSGLYSLSSVVTVPSSSLGTQTYICNVNHKPSNTKVDKKVEPKSCDKTHTCPPCPAPEAAGAPSVFLFPPKPKDTLMISRTPEVTCVVVDVSHEDPEVKFNWYVDGVEVHNAKTKPREEQYNSTYRVVSVLTVLHQDWLNGKEYKCKVSNKALPAPIEKTISKAKGQPREPQVYTLPPSREEMTKNQVSLTCLVKGFYPSDIAVEWESNGQPENNYKTTPPVLDSDGSFFLYSKLTVDKSRWQQGNVFSCSVMHEALHNHYTQKSLSLSPGK
light: B1 light 2 with R24K, E32D, H96N, K97E, S137V, K180S
B8: IL33-0698 (antibody, IgG1, V domains shown)
VH: EVQLVESGGGLVQPGGSLRLSCAASGFTFSSYWMYWVRQAPGKGLEWVAAITPNAHAGYYPESVKGRFTISRDNAKNSLYLQMNSLRAEDTAVYYCARGHYYYTSYSLGYWGQGTLVTVSS
VL: DIQMTQSPSSLSASVGDRVTITCRASQPISKHLDWYQQKPGKAPKLLIYFTNNLQTGVPSRFSGSGSGTDFTLTISSLQPEDFATYYCFQYKQGWTFGGGTKVEIK
B9: IL33-0712 (antibody, IgG1, V domains shown)
VH: B8 VH
VL: B8 VL with N52K, T56S, K92N
B10: IL33-0715 (antibody, IgG1, V domains shown)
VH: B8 VH with A55K, H56G, A57V, G58D
VL: B8 VL with N52K, T56S, K92N
B11: IL33-0713 (antibody, IgG1, V domains shown)
VH: B8 VH with A55K, H56G, A57V, G58D
VL: B8 VL with N52K, Q55V, K92N
B12: IL33-0710 (antibody, IgG1, V domains shown)
VH: B8 VH
VL: B8 VL with N52K, Q55V, K92N
B13: IL33-0714 (antibody, IgG1, V domains shown)
VH: B8 VH with A55K, H56G, A57V, G58D
VL: B8 VL with N52K, Q55K, K92N
B14: IL33-0711 (antibody, IgG1, V domains shown)
VH: B8 VH
VL: B8 VL with N52K, Q55K, K92N
B15: IL33-0701 (antibody, IgG1, V domains shown)
VH: B8 VH with A55K, H56G, A57V, G58D
VL: B8 VL
B16: IL4-0002 (antibody, human IgG1, kappa)
heavy: B7 heavy
light: B1 light 2 with R24K, E32D, H96N, K97E, S137V, K180S

Each binder was assayed against T1, human IL-4 (assay: cell-based or functional assay).

Binder	fold loss in IL-4 neutralization (CD23 bioassay) relative to IL13433-0006 [fold]
B1	~6.5

Target: T1, human IL-4
Assay: cell-based or functional assay
Remark: another data set of the same source

Binder	CD23: Fold bioactivity relative to IL4-1285 [fold]	CD23 IC50 [pM]
B2	5.7	16.8

Target: T1, human IL-4
Assay: cell-based or functional assay
Remark: another data set of the same source

Binder	CD23: Fold bioactivity relative to IL4-0002 [fold]	CD23 IC50 [pM]
B3	0.2	9.3
B4	0.7	3.2
B5	1.3	1.6
B6	0.9	2.4
B7	1	2.1

What follows are binders tested against T2, recombinant human IL-33 (R&D Systems …) (assay: cell-based or functional assay).

Binder	IC50 [nM] versus reduced human IL-33 (R&D), IC50 (AVE) [nM]
B8	0.014
B9	0.01
B10	0.012
B11	0.012
B12	0.013
B13	0.009
B14	0.007
B15	0.013

Each binder was assayed against T3, human IL-4 (assay: cell-based or functional assay).

Binder	a-hIL-4 bioassay IC50, pM) [pM]
B16	2.39
